Source: patent US20240200055A1, “TRANSFORMED CELL LINES EXPRESSING IL24-STAT3 AND METHODS FOR SCREENING AGENTS FOR TREATING BY TARGETING IL24-STAT3 SIGNALING PATHWAY USING THE SAME” (UIF (University Industry Foundation), Yonsei University, priority 2022, published 2024)

B1: IL24: cytokine of the IL-10 family that signals through IL-20R1/IL-20R2 and IL-22R1/IL-20R2 and activates STAT3 (protein, UniProt Q13007 52-206, looked up)
Interleukin-24: QEFHFGPCQVKGVVPQKLWEAFWAVKDTMQAQDNITSARLLQQEVLQNVSDAESCYLVHTLLEFYLKTVFKNYHNRTVEVRTLKSFSTLANNFVLIVSQLQPSQENEMFSIRDSAHRRFLLFRRAFKQLDVEAALTKALGEVDILLTWMQKFYKL

What was measured:
[1] = tested on: HeLa-EF1a-Luc2 cells; assay: Luciferase reporter activity in HeLa-EF1a-Luc2 cells (background control); type: cell-based, human; conditions: 1 μM Stattic, 150 ng/mL IL24, 8 hours, vs DMSO
Description: (§1) Hela cells were cultured to 20% confluency on the day of infection. After removing the culture medium, lentivirus expressing Luc2 (LVX-EIP-Luc2) was mixed with a culture medium and treated to the cells. After adding 2 μg of Polybrene per 1 mL of the virus, the plate was carefully shaken for mixing. After culturing for 15 hours under the condition of 37° C. and 5% CO2, the culture medium was replaced with a fresh one. 48 hours later, the transduced cells were cultured further and recombinant HeLa-EF1a-Luc2 cells were selected by culturing for 2 weeks in a medium containing 2 μg/mL puromycin as an antibiotic.
(§2) HeLa-IL24HTS cells and HeLa-EF1a-Luc2 cells were cultured on a 96-well plate at a concentration of 2.0×10^4 cells/well, respectively. After treating the cells with a vehicle (DMSO) (no Stattic) or 1 μM Stattic (CAS No: 19983-44-9), which is a STAT3 inhibitor, while treating with 150 ng/mL IL24 and culturing for 8 hours, luciferase activity was measured using a luciferase assay system (Promega).

[2] = tested on: IL24-STAT3 signaling; assay: IL24-induced STAT3 luciferase reporter activity in HeLa-IL24HTS cells, inhibitor test; type: cell-based, human; conditions: 1 μM Stattic, 150 ng/mL IL24, 8 hours, vs DMSO
Description: as §1, with “The selected and established HeLa-4.47” for “Hela”, “hIL22RA1, hIL20RB or hSTAT3” for “Luc2 (LVX-EIP-Luc2)”, “HeLa-IL24HTS” for “HeLa-EF1a-Luc2”, “puromycin, 5 μg/mL blasticidin S and 1,000 μg/mL G418” for “puromycin”, “antibiotics. Through this experiment, HeLa-4.47-hIL22RA1-hIL20RB-hSTAT3 cells that stably express all of hIL22RA1, hIL20RB and hSTAT3 were established and named HeLa-IL24HTS.” for “an antibiotic.”
as §2

[3] = tested on: IL24-STAT3 signaling; assay: Reporter activity of HeLa-IL24HTS cells treated with IL24 at different concentrations; type: cell-based, human; conditions: 15 ng/mL or higher IL24, 24 hours
Description: The HeLa-4.47 cells established in Test Example 2 were treated with lentivirus expressing hIL22RA1, hIL20RB or hSTAT3 and selected with 2 μg/mL puromycin, 5 μg/mL blasticidin S and 1,000 μg/mL G418 as antibiotics to obtain HeLa-4.47-hIL22RA1-hIL20RB-hSTAT3 cells (HeLa-IL24HTS) which stably express all of hIL22RA1, hIL20RB and hSTAT3. The specific process of preparing the HeLa-IL24HTS cell line was the same as described above.
After treating the prepared HeLa-IL24HTS cells with IL24 at different concentrations (0.15 ng/mL, 1.5 ng/mL, 15 ng/mL and 150 ng/mL) and culturing for 24 hours, luciferase activity was measured using a luciferase assay system (Promega). […] It can be seen that the HeLa-IL24HTS cells show strong reporter induction of 60 fold or higher in the presence of 15 ng/mL or higher IL24.

[4] = tested on: IL24-STAT3 signaling; assay: Luciferase activity of pGL4.47 HeLa clones co-transfected with hIL22RA1, hIL20RB and hSTAT3, with or without IL24; type: cell-based, human; conditions: 150 ng/mL IL24, 24 hours, clone 12 (HeLa-4.47)
Description: 2 mg of pGL4.47 (Promega, E4041), which is a STAT3 reporter plasmid, was linearized using the Pst1 restriction enzyme. The linearized plasmid was transfected into Hela cells using polyethyleneimine (Polysciences). 48 hours later, the cells were transferred to a 100-mm culture dish and only the transfected cells were selected by treating with 500 μg/mL hygromycin and culturing for 2 weeks. The selected transfected cells were cultured on a 96-well plate. The cells were dispensed at 0.5 cell per well. 33 clones were obtained by culturing further for 3 weeks. Each clone was mixed with pCMV-SPORT6-hIL22RA1 (Korea Human Gene Bank), pCMV3-hIL20RB (SinoBiological) and pCMV3-hSTAT3 (SinoBiological) at 1:1:1 for co-transfection. The transfected cells were treated or untreated with 150 ng/mL IL24. After culturing for 24 hours, luciferase activity was measured by luciferase assay. The clone with the strongest activity was established and named HeLa-4.47.
HeLa cells were transfected with pGL4.47 and selecting using hygromycin to obtain 33 clones. After co-transfecting each clone by mixing with pCMV-SPORT6-hIL22RA1, pCMV3-hIL20RB and pCMV3-hSTAT3 at 1:1:1, luciferase activity was measured using a luciferase assay system (Promega) for treatment with 150 ng/mL IL24 (IL24(+)) or absence of treatment (IL24(−)).

[5] = tested on: IL24-STAT3 signaling; conditions: earlier literature reporter assay; cited from earlier work

Row | Molecule | change in reporter activity [1] | reporter activity inhibited [2] | reporter induction [3] | IL24(+)/IL24(−) ratio of luciferase activity [4] | increase of reporter signal by IL24 [5]
1 | O=[N+]([O-])c1ccc2c(c1)S(=O)(=O)C=C2 [Stattic] | no significant change | about 80% |  |  | 
2 | B1 |  |  | ≥ 60 fold | 150-200 | about 3 times
